Assay results reported in US20080093219A1.

Molecular target: T4 tail-fiber protein P37 SΔ1ras2 (gene 37 SΔ1 deletion with the H-ras mAb epitope inserted at the junction), on SΔ1ras2 phage (bacteriophage T4; bacteriophage T4 with human H-ras insert) (UniProt P03744)
Test: cell-based or functional assay

Substance rat monoclonal IgG antibody Y13-259 has a phage inactivated after mAb and anti-rat IgG serum of 85%, a phage inactivated, control treatment (mAb with buffer only) of 99.8% and a phage inactivation, time course of mAb treatment of 99.9%.
